Experimental data as given in paper PMC12410180, “An anti-CEA affibody showing high-definition staining in human pancreatic cancer tissue sections and selective tumor targeting in vivo” (Translational Oncology, 2025).

Molecular target: T1, human CEA His6-tag (Acro BioSystems, cat. hCE5-H5226) (Homo sapiens, UniProt P06731)
T1 construct: human carcinoembryonic antigen (CEA, CEACAM5), recombinant, His6-tagged; Glycosylated; also called CEACAM5; carcinoembryonic antigen-related adhesion molecule 5; source: bought: Acro BioSystems, produced in HEK293 cells
T1 sequence (P06731 35-685): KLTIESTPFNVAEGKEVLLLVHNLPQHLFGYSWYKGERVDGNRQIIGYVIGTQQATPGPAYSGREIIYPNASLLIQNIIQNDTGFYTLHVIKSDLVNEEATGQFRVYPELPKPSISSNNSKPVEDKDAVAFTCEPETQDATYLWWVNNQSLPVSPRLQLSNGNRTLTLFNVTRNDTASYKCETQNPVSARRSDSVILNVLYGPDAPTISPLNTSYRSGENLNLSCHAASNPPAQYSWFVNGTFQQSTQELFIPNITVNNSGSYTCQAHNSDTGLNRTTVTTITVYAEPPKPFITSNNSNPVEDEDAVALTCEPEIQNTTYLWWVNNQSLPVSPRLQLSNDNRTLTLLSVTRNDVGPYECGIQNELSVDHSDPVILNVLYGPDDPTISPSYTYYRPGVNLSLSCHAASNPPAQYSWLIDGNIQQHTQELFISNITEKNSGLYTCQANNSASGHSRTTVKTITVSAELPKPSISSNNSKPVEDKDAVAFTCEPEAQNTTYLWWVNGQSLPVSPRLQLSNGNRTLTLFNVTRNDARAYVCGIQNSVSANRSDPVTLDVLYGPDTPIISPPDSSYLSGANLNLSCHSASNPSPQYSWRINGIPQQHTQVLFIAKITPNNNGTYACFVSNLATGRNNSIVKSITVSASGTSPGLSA
Experiment: SPR; MFE-23 scFv dilution series (1-100 nM, 3-fold) over a freshly immobilized surface with CEA (2500 RU); 25 °C, PBST pH 7.4; Langmuir 1:1 fit
Conditions: both partners purified

Kd: ~15 nM
B1: anti-CEA scFv fragment MFE-23 (scFv, V domains shown)
VH: QVKLQQSGAELVRSGTSVKLSCTASGFNIKDSYMHWLRQGPEQGLEWIGWIDPENGDTEYAPKFQGKATFTTDTSSNTAYLQLSSLTSEDTAVYYCNEGTPTGPYYFDYWGQGTTVTVSS
VL: ENVLTQSPAIMSASPGEKVTITCSASSSVSYMHWFQQKPGTSPKLWIYSTSNLASGVPARFSGSGSGTSYSLTISRMEAEDAATYYCQQRSSYPLTFGAGTKLELK
notes: Expressed from pET22b(+) with a PelB signal peptide; also called MFE-23 scFv; scFv MFE-23; source: E. coli BL21(DE3), periplasmic preparation, purified (IMAC)
